Data taken from publication PMC6058786 (Haematologica, 2018).

Columns and labels:
[1] = target: T1, purified Pin1 WW-domain (UniProt Q13526 5-39); experiment: ITC
[2] = target: T1, purified Pin1 WW-domain; experiment: ITC; remark: listed apart in the source
[3] = target: T1, purified Pin1 WW-domain; experiment: NMR titration

T1 sequence (Q13526 5-39): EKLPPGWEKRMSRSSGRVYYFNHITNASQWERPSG

B1: Ser258-phosphorylated TFCD-encoding peptide (ITC) (peptide)
peptide: HKCRKAGVGQSWKENSPLNVS
modifications: not fully specified; phosphoserine at 258
A Kd [1] of about 137 µM was found for B1 in this work.

B2: unphosphorylated TFCD (ITC) (peptide)
peptide: HKCRKAGVGQSWKENSPLNVS
A Kd [2] of 1530 µM was found for B2 in this work.

B3: double phosphorylated pSer253/pSer258 TFCD peptide (peptide)
peptide: HKCRKAGVGQSWKENSPLNVS
modifications: not fully specified; phosphoserine at 253; phosphoserine at 258
A Kd [3] of 133 ± 13 µM was found for B3 in this work.
